B1: Cimzia®: biologic, certolizumab pegol (antibody, chains of the INN, looked up, V domains shown)
VH: EVQLVESGGGLVQPGGSLRLSCAASGYVFTDYGMNWVRQAPGKGLEWMGWINTYIGEPIYADSVKGRFTFSLDTSKSTAYLQMNSLRAEDTAVYYCARGYRSYAMDYWGQGTLVTVSS
VL: DIQMTQSPSSLSASVGDRVTITCKASQNVGTNVAWYQQKPGKAPKALIYSASFLYSGVPYRFSGSGSGTDFTLTISSLQPEDFATYYCQQYNIYPLTFGQGTKVEIK
modifications: Fab' PEG (pegol)
B2: BDNF: recombinant human BDNF produced in Escherichia coli, R&D Systems catalogue number 248-BDB/CF; SEQ ID NO: 4 (protein, listed as Homo sapiens)
chain: HSDPARRGELSVCDSISEWVTAADKKTAVDMSGGTVTVLEKVPVSKGQLKQYFYETKCNPMGYTKEGCRGIDKRHWNSQCRTTQSYVRALTMDSKKRIGWRFIRIDTSCVCTLTIKRGR
modifications: human BDNF, human brain-derived neurotrophic factor
B3: IL-4: recombinant human IL-4 produced in Escherichia coli, R&D Systems catalogue number 204-IL/CF; SEQ ID NO: 3 (protein, listed as Homo sapiens)
chain: METGLYLETHRSERGLNLELEPRPRLEPHEPHELELEALACYSALAGLYASNPHEVALHISGLYHISLYSCYSASPILETHRLEGLNGLILEILELYSTHRLEASNSERLETHRGLGLNLYSTHRLECYSTHRGLLETHRVALTHRASPILEPHEALAALASERLYSASNTHRTHRGLLYSGLTHRPHECYSARGALAALATHRVALLEARGGLNPHETYRSERHISHISGLLYSASPTHRARGCYSLEGLYALATHRALAGLNGLNPHEHISARGHISLYSGLNLEILEARGPHELELYSARGLEASPARGASNLETRPGLYLEALAGLYLEASNSERCYSPRVALLYSGLALAASNGLNSERTHRLEGLASNPHELEGLARGLELYSTHRILEMETARGGLLYSTYRSERLYSCYSSERSER
modifications: human IL-4, Interleukin 4

Columns and labels:
[1] = test system: ankylosing spondylitis (Bechterew's disease); assay type: in vivo, human; details: Patient 11; ended more than a year before; lost their effect within half a year
[2] = test system: patient suffering from multiple sclerosis; assay: treatment of a patient: SHILD-score, relapses, fatigue; assay type: in vivo, human; details: for subject's condition in multiple sclerosis: as indicated by the SHILD-score; for SHILD-score: multiple sclerosis
[3] = as can be seen from the examples

Molecule | Effect of earlier treatment with biologics (patient history) [1] | fatigue in case of multiple sclerosis [2, 3] | subject's condition in multiple sclerosis [2] | SHILD-score [2] | relapses in case of multiple sclerosis [2, 3]
B1 | had little effect from the outset | – | – | – | –
B2 | – | very effectively relieving | stabilized or even improved | decreasing | –
B3 | – | reduction | stabilization or even improvement | decreasing | avoiding

Reference: patent publication US20240261374A1, “PHARMACEUTICAL COMPOSITION AND KIT COMPRISING AN IMMUNOMODULATORY SUBSTANCE FOR TREATING DISEASES” (ellennbe GmbH, priority 2021, published 2024)
